Test results taken from patent US20230174651A1.

Key:
[1] = molecular target: CD79b CAR with CD8α hinge as the spacer; experiment: flow cytometry, NK cell line-1 transduced with CD79b CAR construct 441HL at MOI 20, AF647-CD79b at 1 µg/ml; same gate on untransduced (UTD) cells 0.23
Target sequence (P01732 138-182): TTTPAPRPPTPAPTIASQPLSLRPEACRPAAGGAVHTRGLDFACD

[2] = molecular target: CD79b CAR with CD8α hinge as the spacer; experiment: flow cytometry, NK cell line-1 transduced with CD79b CAR construct 441HL at MOI 5, AF647-CD79b at 1 µg/ml; same gate on untransduced (UTD) cells 0.23
[3] = molecular target: CD79b CAR with CD8α hinge as the spacer; experiment: flow cytometry, NK cell line-2 transduced with CD79b CAR construct 137LH at MOI 5, AF647-CD79b at 1 µg/ml; same gate on untransduced (UTD) cells 0.32
[4] = molecular target: CD79b CAR with CD8α hinge as the spacer; experiment: flow cytometry, NK cell line-2 transduced with CD79b CAR construct 137LH at MOI 20, AF647-CD79b at 1 µg/ml; same gate on untransduced (UTD) cells 0.32
[5] = molecular target: CD79b CAR with CD8α hinge as the spacer; experiment: flow cytometry, NK cell line-1 transduced with CD79b CAR construct 137LH at MOI 5, AF647-CD79b at 1 µg/ml; same gate on untransduced (UTD) cells 0.23
[6] = molecular target: CD79b CAR with CD8α hinge as the spacer; experiment: flow cytometry, NK cell line-2 transduced with CD79b CAR construct 441HL at MOI 5, AF647-CD79b at 1 µg/ml; same gate on untransduced (UTD) cells 0.32
[7] = molecular target: CD79b CAR with CD8α hinge as the spacer; experiment: flow cytometry, NK cell line-1 transduced with CD79b CAR construct 137LH at MOI 20, AF647-CD79b at 1 µg/ml; same gate on untransduced (UTD) cells 0.23
[8] = molecular target: CD79b CAR with CD8α hinge as the spacer; experiment: flow cytometry, NK cell line-2 transduced with CD79b CAR construct 441HL at MOI 20, AF647-CD79b at 1 µg/ml; same gate on untransduced (UTD) cells 0.32

AF647-CD79b, sequence (P40259 29-159 limits assumed): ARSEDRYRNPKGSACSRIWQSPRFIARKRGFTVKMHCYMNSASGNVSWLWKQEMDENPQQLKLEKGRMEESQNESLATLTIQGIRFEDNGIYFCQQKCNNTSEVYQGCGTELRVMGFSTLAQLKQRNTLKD

AF647-CD79b (from UniProt P40259 29-159)
% positive (CD79b CAR+ NK cells) [1]: 80.8% | % positive (CD79b CAR+ NK cells) [2]: 69.9% | % positive (CD79b CAR+ NK cells) [3]: 47.4% | % positive (CD79b CAR+ NK cells) [4]: 71.2% | % positive (CD79b CAR+ NK cells) [5]: 67.1% | % positive (CD79b CAR+ NK cells) [6]: 72.2% | % positive (CD79b CAR+ NK cells) [7]: 74.5% | % positive (CD79b CAR+ NK cells) [8]: 85.2%
